The results in this text go back to publication PMC3839629.

The target of experiment [1] is DGK_(Cysless), cysless His6-tagged diacylglycerol kinase from Escherichia coli (Escherichia coli). Nature of the experiment: anion exchange chromatography of subunit exchange.
Experiment [2] deals with E5-DGK_(Cysless), cysless His6-tagged diacylglycerol kinase with a pentaglutamate tag (Escherichia coli). Nature of the experiment: anion exchange chromatography of subunit exchange.

In experiment [1], “DGK_(Cysless), cysless His6-tagged diacylglycerol kinase from Escherichia coli (enzyme)” had a half-life of subunit exchange of over 5 weeks.

Consider “E5-DGK_(Cysless), cysless His6-tagged diacylglycerol kinase with a pentaglutamate tag (enzyme)”, for which, in experiment [1], the percent of the expected final subunit exchange after 7 days came to 10% and the ratio of the mixed peaks to the pure peaks after 7 days came out at 0.3. For the same substance, the half-life of subunit exchange in experiment [2] is over 5 weeks.
